Key:
[1] = target: T1, recombinant human CD30L isoleucine zipper (huCD30L LZ) (human, UniProt P32971 63-234); assay: blocking of human CD30L LZ binding to K299 cells (CD30)
T1 construct: also called huCD38L LZ; CD30L LZ Hu; not shown: N-terminal isoleucine zipper motif (leucine zipper with leucines replaced by isoleucines)
T1 sequence: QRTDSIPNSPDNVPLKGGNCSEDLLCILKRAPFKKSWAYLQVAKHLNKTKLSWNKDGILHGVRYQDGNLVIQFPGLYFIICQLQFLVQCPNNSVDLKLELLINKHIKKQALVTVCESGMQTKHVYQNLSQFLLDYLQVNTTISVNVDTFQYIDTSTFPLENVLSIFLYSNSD

[2] = target: T2, FLAG-hCD30L-EC (N153Q) treated with PNGaseF (human); assay: HX-MS, 6 uM hCD30L with 6.6 uM mAb
T2 construct: also called FLAG-hCD30L-EC + PNGaseF
T2 chain: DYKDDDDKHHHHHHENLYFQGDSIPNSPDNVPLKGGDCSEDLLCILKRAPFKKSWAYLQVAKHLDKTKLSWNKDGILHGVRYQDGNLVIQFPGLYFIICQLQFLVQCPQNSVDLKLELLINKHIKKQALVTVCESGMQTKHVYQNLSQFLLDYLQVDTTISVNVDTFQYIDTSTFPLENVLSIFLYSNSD

cyno CD30L LZ = target: T3, cyno CD30L LZ (cynomolgus monkey, UniProt A0A7N9CVX7 63-234); assay: cell-based or functional assay
T3 sequence: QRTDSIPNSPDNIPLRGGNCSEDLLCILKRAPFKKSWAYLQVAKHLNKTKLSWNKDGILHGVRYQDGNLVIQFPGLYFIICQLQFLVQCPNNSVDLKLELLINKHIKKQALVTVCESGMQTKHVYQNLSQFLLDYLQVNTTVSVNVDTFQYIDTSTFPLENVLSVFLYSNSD

[3] = target: T4, native human CD30L expressed on Ramos cells (human, UniProt P32971 1-234); assay: FACS, antibody at 50 ug/mL, inhibition of huCD30.Fc-His binding to Ramos cells
T4 construct: It is used here for the native protein on human B cell lines; also called huCD30L; Native huCD30L
T4 sequence: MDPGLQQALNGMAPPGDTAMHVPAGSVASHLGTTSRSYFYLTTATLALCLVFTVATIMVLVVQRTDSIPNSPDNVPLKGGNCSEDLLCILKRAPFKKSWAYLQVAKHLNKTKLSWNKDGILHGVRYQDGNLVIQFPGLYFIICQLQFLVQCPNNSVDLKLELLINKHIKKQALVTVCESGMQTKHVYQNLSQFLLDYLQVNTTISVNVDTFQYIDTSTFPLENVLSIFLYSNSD
Experimental: The antibodies were also screened for ability to block binding of human CD30L to a soluble human CD30. c molecule. Briefly, human Ramos cells or activated cynomolgus monkey T cells were incubated with anti-CD30L IgGs at 50 μg/mL in blocking buffer for 30 minutes at 4° C. Soluble huCD30. Fc-His was then added at a final concentration of 2.5 ug/mL (30 μL/well) and incubated for 30 minutes at 4° C. Cells were washed ×2 with PBS and incubated with 5 μg/mL of a mouse anti-His monoclonal antibody (30μL/well in blocking buffer) and incubated for 30 minutes at 4° C. After washing ×2 with PBS, cells were incubated with anti-mouse IgG-PE (1:50 in PBS; BD Pharmingen, San Diego, Calif.) for a further 30 minutes at […]. Cells were then washed ×2 with PBS and prepared for FACs analysis.

[4] = target: T5, native cynomolgus monkey CD30L on activated T cells (cynomolgus monkey, UniProt A0A7N9CVX7 1-234); assay: FACS, native cyno CD30L on activated cynomolgus T cells
T5 construct: whole, on cells; also called cynomologous CD30L
T5 sequence: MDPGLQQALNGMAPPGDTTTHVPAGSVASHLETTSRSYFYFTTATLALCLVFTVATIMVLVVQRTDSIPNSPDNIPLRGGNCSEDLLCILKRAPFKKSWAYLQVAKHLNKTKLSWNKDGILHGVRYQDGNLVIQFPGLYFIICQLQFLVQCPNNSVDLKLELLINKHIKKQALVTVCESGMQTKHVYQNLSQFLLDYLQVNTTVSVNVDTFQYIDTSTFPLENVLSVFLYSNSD
Experimental: The antibodies were rescreened for binding to native human and cynomologous monkey CD30L. Briefly, human Burkitt's lymphoma Ramos cells (3×10⁵/well) were incubated in round-bottomed 96-well microtiter plates (Costar® 96 well plate (Corning; Acton, Mass.) with a titration (10 μg/mL to 3.2 ng/mL final concentration) of anti-CD30L IgG antibodies in blocking buffer (PBS containing 0.02% sodium azide, 2% normal goat serum and 1% normal rabbit serum). Human […] fusion protein was included as a positive control for binding. Cells were incubated for 30 minutes at 4° C. then washed ×2 with PBS and incubated for a further 30 minutes at 4° C. with 30 μL/well of anti-hu IgG-biotin (1:50 in blocking buffer; Jackson Immunoresearch, West Grove, Pa.). After washing ×2 with PBS, cells were incubated for 30 minutes at 4° C. with 30 μL/well (1:50 dilution in PBS) of Streptavidin-Phycoerythrin (PE; Molecular Probes, Eugene, Oreg.). Cells were washed 2× with PBS and prepared for FACs analysis.
Cynomologous activated T cells were prepared by isolating peripheral blood mononuclear cells (PBMC) from heparinized cynomolgus monkey blood by density centrifugation over Isolymph (2000 rpm. for 20 minutes). PBMC were resuspended in 25 mLs of PBS, added to 300 μl of a 50% solution of 2-Aminoethylisothiouronium bromide (AET)-treated sheep erythrocytes and centrifuged at […] at 4° C. for 10 minutes. Pelleted cells were incubated at 4° C. for a further 20 minutes, gently resuspended and centrifuged over Isolymph. Supernatant was removed down to the T cell/erythrocyte pellet. The pellet was then resuspended in 25 mL of lyses buffer (0.85% ammonium chloride in water) and incubated at 37° C. for 10 minutes. The resultant T cells were pelleted and washed x2 in culture medium (RPMI-1640 medium +10% heat-inactivated fetal bovine serum) and then cultured ([…]) at 37° C. for 18 hr in the presence of 10 ng/mL Phorbol Myristate Acetate (PMA; Sigma Chemicals, St Louis, Mo.) and 500 ng/mL lonornycin (Calbiochem, San Francisco, Calif.). At the end of the culture period, cynomolgus T cells were counted and washed 1× with PBS and incubated with 2% Goat serum, 1% Rabbit serum and 0.1% Human serum in PBS for 30 minutes at […]. Cells were then stained with anti-huCD30L antibodies as described above for human Ramos cells.

B1: Antibody E (antibody, V domains shown)
VH: QVQLQESGPRLVKPSETLSLTCTVSGGSITNNYWSWIRQPAGKGLEWIGRVYSSGLTNYKPSLKSRVTMSVDTSKNQFSLRLNSVTAADTAVYYCARERATVTTRYHYDGMDVWGQGTSVTVSS
VL: QSALTQPASVSGSPGQSITISCTGSSSDIGTYNYVSWYQQYPGKAPELMIYEVNNRPSGVSDRFSGSTSGNTASLTISGLQANDEADYYCSSYSSSSTWVFGGGTKLTVL
notes: also called mAb E
With B1 the IC50 [1] was 2.1 nM, the binding result [2] was “binds” and the “IC50, inhibition of IL-8 release (K299 single cell assay with cyno CD30L LZ)” value (from here on “IC50, inhibition of IL-8 release”) (cyno CD30L LZ) was 5.4 nM. For the same binder, the “% inhibition” value [3] was 80% and the EC50 [4] was 2.7 nM.

B2: Antibody A (antibody, V domains shown)
VH: QVQLQESGPGLVKPSETLSLTCTVSGGSISSYIWSWIRQPAGKGLEWIGRIYASGNTNYNPSLKSRVTMSVDTSKNQFSLKLSSMTAADTAVYYCARDYRVAGTYYYYYGLDVWGQGTTVTVSS
VL: QSALTQPASVSGSPGQSITISCTGTSSDVGVYDYVSWYQQHPGKAPKLMIYEVSNRPSGVSNRFSGSKSGNTASLTISGLQTEDEADYYCSSYTSRSTWVFGGGTKLTVL
notes: Human antibody (XenoMouse); also called mAb A; anti-hCD30L A
With B2 the IC50 [1] was 1.5 nM, the “IC50, inhibition of IL-8 release” value (cyno CD30L LZ) was 2 nM and the “% inhibition” value [3] was 68%. It also gave an EC50 [4] of 2.2 nM.

B3: Antibody D (antibody, V domains shown)
VH: QVQLQESGPGLVKPSETLSLTCTVSGGSISSYSWSWIRQPAGKGLEWIGRTSTSGRNNYNPSLKSRVTMSVDTSKNQFSLKLNSVTAADTAVYYCARDFTIAARRYYYYGMDVWGQGTTVTVSS
VL: QSALTQPASVSGSPGQSITISCTGTSSDIGLYNYVSWYQQHPGKAPKLIIYEVINRPSGVSNRFSGSESGNTASLTISGLQAEDEANYYCSSYTSSSTWVFGGGTKLTVL
notes: also called mAb D
B3 was tested, and the binding result [2] was “binds”, the “IC50, inhibition of IL-8 release” value (cyno CD30L LZ) was 5.4 nM and the “% inhibition” value [3] was 55%. It also gave an EC50 [4] of 2.7 nM.

B4: Antibody B (antibody, V domains shown)
VH: QVQLQESGPGLVKPSETLSLTCTVSGGSISSYYWTWIRQPAGKGLEWIGRIYTSGITNYNPSLKSRVTMSVDTSKNQFSLKLSSVTAADTAVYYCARERVVGASRYYYYGVDVWGQGTTVTVSS
VL: QSALTQPASVSGSPGQSITISCTGTSSDVGLYNYVSWYQQHPDKAPKLMIFEVNNRPSGVSNRFSGSNSGNTASLTISGLQAEDEADYYCSSYTSSSTWVFGGGTKLTVL
notes: also called mAb B
With B4 the IC50 [1] was 2.5 nM, the “IC50, inhibition of IL-8 release” value (cyno CD30L LZ) was 5.6 nM and the “% inhibition” value [3] was 70%. The EC50 [4] was 4 nM.

B5: Antibody F (antibody, V domains shown)
VH: QVQLQESGPGLVKPSETLSLTCTVSGGSISSYYWSWIRQPAGKGLEWIGRIFASGSTNYNPSLRSRVTMSRDTSKNQFSLKLSSVTAADTAVYYCAKERVGVQDYYHYSGMDVWGQGTTVTVSS
VL: QSALTQPASVSGSPGQSITISCTGTSSDVGLYNYVSWYQQQPGKAPKLMIYEVSKRPSGVSNRFSGSTSGNTASLTISGLQADDEADYSCSSYTSSSTWVFGGGTKLTVL
notes: also called mAb F
With B5 the IC50 [1] was 2 nM, the binding result [2] was “binds” and the “IC50, inhibition of IL-8 release” value (cyno CD30L LZ) was 5.5 nM. It also gave an EC50 [4] of 2.9 nM.

B6: Antibody C (antibody, V domains shown)
VH: QVQLQESGPGLVKPSETLSLTCTVSGGSISSYYWTWIRQPAGKGLEWIGRIYTSGITNYNPSLKSRVTMSVDTSKNQFSLKLSSVTAADTAVYYCARERVVGASRYYYYGVDVWGQGTTVTVSS
VL: QSALTQPASVSGSPGQSITISCTGTSSDIGLYDYVSWYQQHPDRAPKLIIFEVNNRPSGVSYRFSGSNSGNTASLTISGLQAEDEADYYCSSYTSSSTWVFGGGTKLTVL
notes: also called mAb C
In the case of B6, the IC50 [1] is reported as 1.9 nM, the “IC50, inhibition of IL-8 release” value (cyno CD30L LZ) is reported as 3.9 nM and the “% inhibition” value [3] is reported as 88%. It also gave an EC50 [4] of 1 nM.

From US20220112295A1 (Novo Nordisk, published 2022)
